{
  "source": "paper doi:10.1101/2023.11.15.567215",
  "about": "(bioRxiv, 2023)",
  "proteins": {"B1": {"name": "Mtb LexA (LexA of Mycobacterium tuberculosis), wild type (natural protein)", "chain": "MNDSNDTSVAGGAAGADSRVLSADSALTERQRTILDVIRASVTSRGYPPSIREIGDAVGLTSTSSVAHQLRTLERKGYLRRDPNRPRAVNVRGADDAALPPVTEVAGSDALPEPTFVPVLGRIAAGGPILAEEAVEDVFPLPRELVGEGTLFLLKVIGDSMVEAAICDGDWVVVRQQNVADNGDIVAAMIDGEATVKTFKRAGGQVWLMPHNPAFDPIPGNDATVLGKVVTVIRKV"}},
  "molecular_target": "the molecule itself",
  "assay": "cross-linking",
  "data": [
    {"protein": "B1", "values": [
      {"measurement": "stoichiometry N", "result": 2}
    ]}
  ]
}
